Data as given in patent publication US11312984B2, “High-purity steviol glycosides” (PURECIRCLE SDN BHD, priority 2013, dated 2022).

Experiment: Activity of UGT76G1_Sc for the conversion of Rebaudioside D to Rebaudioside M
Assay type: biochemical
Details: based on initial concentration of Rebaudioside D; 21 h.
Procedure: UGT76G1_Sc was prepared according to EXAMPLE 34. Activity tests were performed at 2 mL scale with 200 μL of lysate for the transformation of Rebaudioside D using 0.5 mM of substrate, 2.5 mM of UDP-Glucose and 3 mM MgCl2 in 50 mM Sodium Phosphate buffer at pH 7.2. Samples were taken and analyzed by HPLC according to the method of EXAMPLE 20.

B1: UGT76G1_Sc (protein, UniProt Q6VAB4 1-458, looked up)
UDP-glycosyltransferase 76G1: MENKTETTVRRRRRIILFPVPFQGHINPILQLANVLYSKGFSITIFHTNFNKPKTSNYPHFTFRFILDNDPQDERISNLPTHGPLAGMRIPIINEHGADELRRELELLMLASEEDEEVSCLITDALWYFAQSVADSLNLRRLVLMTSSLFNFHAHVSLPQFDELGYLDPDDKTRLEEQASGFPMLKVKDIKSAYSNWQILKEILGKMIKQTKASSGVIWNSFKELEESELETVIREIPAPSFLIPLPKHLTASSSSLLDHDRTVFQWLDQQPPSSVLYVSFGSTSEVDEKDFLEIARGLVDSKQSFLWVVRPGFVKGSTWVEPLPDGFLGERGRIVKWVPQQEVLAHGAIGAFWTHSGWNSTLESVCEGVPMIFSDFGLDQPLNARYMSDVLKVGVYLENGWERGEIANAIRRVMVDEEGEYIRQNARVLKQKADVSLMKGGSSYESLESLVSYISSL
modifications: expressed in Saccharomyces cerevisiae
- Rebaudioside M selectivity (Retention Time ~6.7 min): 100%
